According to the supplement of paper PMC12042874:
± gives the uncertainty stated by the source.

Test: amyloid nucleation score (Sup35N fusion, yeast selection) (log enrichment); library NNK3; higher = more nucleation; inactive = no reads after selection
How it was run: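 Peptides of 20 random codons fused to Sup35N were expressed in psi-negative yeast, induced 24 hours with 100 μM copper sulfate, then grown 7 days at 30°C on medium lacking adenine and uracil. Input and output plasmid inserts were Illumina-sequenced. Nucleation score is the DiMSum log enrichment of output over input reads, centred on the mode score of non-aggregating sequences, excluding sequences with under 100 input reads. Random libraries had three technical output replicates.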

| Substance | amyloid nucleation score |
| --- | --- |
| CECTRVCRVCPSVSMHAIK | inactive |
| CEFTYGKDAKVRTEAYHAYW | inactive |
| CEGCTYMCSCI | 0.85 ± 0.1 |
| CEGVAHSDMFLRLLLTETGL | -0.792 ± 1.8 |
| CEIRSCGENFNATSRGRPGI | inactive |
| CEKGLFLFSFSKFTSYPPGM | -0.435 ± 0.55 |
| CEPMRYNCFCGFCIYDVRV | 2.36 ± 0.06 |
| CFCQVSKANWLNR | inactive |
| CFLMCVAVVCRIRNYYWCTI | inactive |
| CFNSR | inactive |
| CFRVYVPNSKSDDL | inactive |
| CFSNLGCTGWRT | -0.684 ± 1.2 |
| CFTDSFINTLCVFNIDPGFP | 2.46 ± 0.051 |
| CFVGVTFDLSSDLCLFCNKV | inactive |
| CFVLFLNLLVATGPIWINSP | 0.477 ± 0.2 |
| CFYAISDRRSRFSIIFTYNG | inactive |
| CGISSILIAFCCNHYIVQWM | 1.92 ± 0.054 |
| CGLPTVKTYRMEMSYNRLDW | inactive |
| CGTCLRMVKVTRSDV | inactive |
| CGVCFYHIAWGSVHDTS | 0.93 ± 0.16 |
| CHCIYNQCVGFSVCGCRGFG | 2.35 ± 0.058 |
| CHGCMRLLSDGLKDEWYMIF | inactive |
| CHNVLWRLKRFHASRCTGDM | inactive |

| Substance | amyloid nucleation score |
| --- | --- |
| CIAPILFPALAHQLLLAKGH | inactive |
| CILYRFPPATKSHRITGIYK | inactive |
| CIMRMTFTMITYCNSLSLGS | inactive |
| CIRGVQNTGCGAQACYPVCR | inactive |
| CIRPVLSHSYEIKNTGLGRT | inactive |
| CKGNINTYGYLYLDVYFYIM | 1.94 ± 0.073 |
| CKRNKDGKWRRKTWRLVQFY | -1 ± 1.2 |
| CLFRDDRNRVDI | inactive |
| CLLEHFK | inactive |
| CLNYSETCSPI | inactive |
| CLSLFTSGIV | inactive |
| CLSYITLPRCLCAHRFKLG | inactive |
| CLTGRLLKSSVIRWRKYMNV | inactive |
| CLTTVRLRNYFF | inactive |
| CLTVHTVNIIGMNFIVNVAL | 2.72 ± 0.085 |
| CLVKHRPHSEVACGADNVCR | inactive |
| CLVYLV | inactive |
| CMFCLPMGNSIRGLGNRNSV | 1.87 ± 0.074 |
| CMGACLAGDTCKWIRQHLSG | inactive |
| CMLCTQLHNNRRKKSKMCWS | inactive |
| CMMPLNATRYVYLPNAAHSL | inactive |
| CMQSEHTTSAYYRLDCS | -0.276 ± 0.41 |
| CMTFLNIYSNGQLSGTYCLF | 1.59 ± 0.083 |

| Substance | amyloid nucleation score |
| --- | --- |
| CNCVYSSANFCDIMYTNRLG | 1.14 ± 0.085 |
| CNNNLGVVFPRFWSIFAKGC | inactive |
| CNYNTTM | inactive |
| CPCDTGVKQVTILEQGWVVM | 0.963 ± 0.14 |
| CPPGWRCQHKLDLTLGPDRW | inactive |
| CPSWCYFNRGDV | 1.39 ± 0.091 |
| CPYVKSHSICDDSSGLPRLK | inactive |
| CRCNWENCCMDQL | inactive |
| CRIPALTTTMLITNG | inactive |
| CRKEYIFYLFHIIMSQARNI | inactive |
| CRLPLQSL | inactive |
| CRNCR | inactive |
| CRPRLVLSFGQIVY | inactive |
| CRRRYSDLSIYLLVSNDVIV | inactive |
| CRSWVPMGGDLHRGWSLANK | inactive |
| CSCQRPKAFQVQWNGG | 0.789 ± 0.14 |
| CSCWTISLFCLWQTLRFPPI | 0.438 ± 0.23 |
| CSDATIGQNSGSHDQLNRSD | inactive |
| CSDCDWSDFFVDVSFWIMVI | inactive |
| CSDNILEHYTSFYWLMSVHR | inactive |
| CSIILWALPEFNLLDFLPAD | inactive |
| CSISNVFSVVNVSSYSWGLY | 0.373 ± 0.39 |
| CSLCYETGSICVVSRGEDGL | inactive |

| Substance | amyloid nucleation score |
| --- | --- |
| CSLNLCVKDTHIHEN | inactive |
| CSLVLSESPFGNI | inactive |
| CSMPFTSSEKLGKCGNDAPF | inactive |
| CSRLPVHRFIP | inactive |
| CSSQTIRGTDKSHDVLAKLL | inactive |
| CSSSRVWVHKHYGTYRHFIL | inactive |
| CTAILAVMSIGNFFNRLDLN | inactive |
| CTCFRGSTFRNAYN | inactive |
| CTHLLFCPMGRVSTCSLKME | inactive |
| CTHVLRNWGIKNGP | inactive |
| CTRSVSILESLRDSNTSLSQ | inactive |
| CTTRMCNGLWNARLRGTTSP | inactive |
| CTYIVHATVEPVYDNDLLKW | inactive |
| CTYLAVVTMMDEELWGIRWN | inactive |
| CVDVSGLFGNIMEVILVMSW | inactive |
| CVLSSRF | inactive |
| CVMGIRIHPFVVYNGQGGTS | inactive |
| CVMLVAVQGR | inactive |
| CVNMLRKTVIYFLHFPAYYR | inactive |
| CVNTHRY | inactive |
| CVQRVREYVGT | inactive |
| CVRYSRSGWVCDTGRLKDPC | inactive |
| CVSIGVVMCFCKSRFAITFV | inactive |

| Substance | amyloid nucleation score |
| --- | --- |
| CVSRICVWPRYETTGFYAST | inactive |
| CVTFFVISTHPHSCSLSN | 2.42 ± 0.083 |
| CVTGVSLPGNRISG | inactive |
| CVTRDDLCYW | inactive |
| CVYNRLNMF | -0.296 ± 0.28 |
| CWADSDSVSKKSRIA | inactive |
| CWAYF | inactive |
| CWFLVTMGYAGCFFSPVTQL | inactive |
| CWIAMCGVVFNDLRMS | 2.81 ± 0.071 |
| CWLPFVCCAQCLNRIDVVSR | 2.32 ± 0.066 |
| CWNDSLLCYMSSTMGNVQTT | inactive |
| CWVRIVAICMGFW | inactive |
| CYFLQ | inactive |
| CYGKLDGMTNDEEGTPVFAN | inactive |
| CYGLSRCTRAEAMCPKG | inactive |
| CYIYLSMQYGEHANDIICLW | inactive |
| CYKMNVMT | inactive |
| CYQVWPARLSILHARLLGGR | inactive |
| CYRISSESWSTWWIYFWSCR | inactive |
| CYWKLYCGNEYYGVSFMGVL | inactive |
| CYYDEVFAFLSLMTFRIQNK | inactive |
| DALRL | inactive |
| DANWDTLIFLSSRMNAWRYK | 1.86 ± 0.077 |

| Substance | amyloid nucleation score |
| --- | --- |
| DCALAAGMK | inactive |
| DCCSYRSERA | inactive |
| DCFFRSVDLADSR | inactive |
| DCFSGIGCSRRKT | inactive |
| DCGKWNLWSQPLGTG | inactive |
| DCMNGLVCFFMMCRGSLIRD | inactive |
| DCPLNNVTSLSHP | inactive |
| DCSGG | inactive |
| DDCQFSDNRRFKSVPSYSQR | inactive |
| DDGSKCLLSSMMFVNLVTYC | inactive |
| DDYLPMISPFRCYSQFKYIS | inactive |
| DENVRLTL | inactive |
| DFDAC | 0.021 ± 0.52 |
| DFDLLSFIRSDVIPCVCSKG | inactive |
| DFELFSSALGSLSNGHSENV | inactive |
| DFEVR | inactive |
| DFFLRVMYMKWNAPL | inactive |
| DFGFWLVDVGWGPLLRYVAD | inactive |
| DFKDCDICTTPNDKVESGKV | inactive |
| DFLLATDQVGYKDLDLGTKV | inactive |
| DFLYRGMNGSGFPLCIYQRC | inactive |
| DFRRANGEYWLTAAPMLIHT | 0.396 ± 0.28 |
| DFRRTGLCIREWSSWRIMKL | inactive |

| Substance | amyloid nucleation score |
| --- | --- |
| DFSTDTHWKVWW | 0.566 ± 0.43 |
| DFVRSNNCYWCFAAFSPCFR | inactive |
| DFVTHWSVAMLMI | inactive |
| DFYFRVIVVGGHCVSDTSFL | inactive |
| DFYLDLITLDNRTTSSTSML | inactive |
| DGAEDCRS | -1.03 ± 2.5 |
| DGCALSMPNYAGNQVVKQRG | inactive |
| DGDIVQCSSLCKVSGFLFTS | inactive |
| DGEASTRVSCGDDIFRKTSS | 1.03 ± 0.16 |
| DGLSLPPMMVNRVQTATQSR | inactive |
| DGMTKFRWSCVRWVCG | inactive |
| DHRNVRRLKVRLTECIE | inactive |
| DIQVFLTSSLQFIAEISVGG | inactive |
| DIRYLISSTRYLDVMEGFLV | inactive |
| DKALS | inactive |
| DKEDHLSVFWAV | inactive |
| DKRFELNRALLTVPWDQNRA | inactive |
| DKSLFKII | inactive |
| DKYFVAASWFRWVLVYMGWS | inactive |
| DLNIIRISAYLCLANCFPST | 2.37 ± 0.054 |
| DLNRYSWSRKRRLCCSHCRG | inactive |
